From paper PMC6614801, “Structural basis for the function of SuhB as a transcription factor in ribosomal RNA synthesis” (Nucleic Acids Research, 2019) come the findings set out here.

B1: SuhB (inositol mono-phosphatase SuhB), wild type (natural protein, E. coli, UniProt P0ADG4 1-267, looked up)
chain: MHPMLNIAVRAARKAGNLIAKNYETPDAVEASQKGSNDFVTNVDKAAEAVIIDTIRKSYPQHTIITEESGELEGTDQDVQWVIDPLDGTTNFIKRLPHFAVSIAVRIKGRTEVAVVYDPMRNELFTATRGQGAQLNGYRLRGSTARDLDGTILATGFPFKAKQYATTYINIVGKLFNECADFRRTGSAALDLAYVAAGRVDGFFEIGLRPWDFAAGELLVREAGGIVSDFTGGHNYMLTGNIVAGNPRVVKAMLANMRDELSDALKR
notes: Inositol mono-phosphatase SuhB of E. coli, PCR-amplified from E. coli (DH5α) genomic DNA, full length; Dimer by SEC-MALS and in both crystal structures; also called wt SuhB; SuhB^II; source: E. coli BL21(DE3)pLysS, purified (Ni-NTA, TEV digestion, SEC)
B2: N-terminally His6-tagged NusA^AR2 (domain or fragment, E. coli, UniProt P0AFF6 427-495, looked up)
chain: DNKPADDLLNLEGVDRDLAFKLAARGVCTLEDLAEQGIDDLADIEGLTDEKAGALIMAARNICWFGDEA
notes: C-terminal acidic repeat 2 (AR2) domain of E. coli NusA, residues 427–495; Same construct as m3, with the His6 tag kept for capture on the NTA chip in SPR; also called wt AR2; source: recombinant (pETM-11), purified via the same protocol as full-length NusA (19); not shown: His6, N-terminal, kept
B3: SuhB^KL251/254AA (natural protein, E. coli, UniProt P0ADG4 1-267, looked up)
chain: B1 chain with K251A, L254A
notes: also called KL/AA

Common to all, as to conditions: both partners purified
One test deals with T1, NusA, full length (E. coli, UniProt P0AFF6 1-495).
T1 construct: Transcription factor NusA of E. coli, full length; also called NusA^FL; N-utilization substance A; source: recombinant, produced and purified as described previously (18,19)
The test is described as follows: SEC; analytical SEC of mixtures of proteins only; Superdex 200 Increase 3.2/300; 20 μM largest component, 25 μM all smaller components; 20 mM HEPES–NaOH pH 7.5, 50 mM NaCl, 1 mM DTT; incubated at room temperature for 15 min; fractions on SDS-PAGE.

For a further test, the target named is T2, SuhB^K108A (E. coli, UniProt P0ADG4 1-267, K108A).
T2 sequence (looked up): B1 chain with K108A
In words: SPR; Biacore, Sensor Chip NTA, 20°C; N-terminally His6-tagged NusA^AR2 immobilised; single cycle kinetics with SuhB variants at 25, 50, 100, 150 and 200 nM; 20 mM HEPES–NaOH pH 7.5, 50 mM NaCl, 1 mM DTT.

The target in test [1] is B1. Described as above.

Numbering of substitutions follows the chain as printed.

B1: in the test with NusA, full length, the binding result was “binds”. For the molecule B2, the results for the Kd (with SuhB^K108A; in test [1]) were 435 nM and 94 nM, respectively. B3: in the test with NusA, full length, the binding result is reported as “binds”.
